Results reported in patent publication US20240043530A1 (JIANGSU HENGRUI PHARMACEUTICALS, published 2024).
Read-outs that look alike come from different tables or passages of the source. Values belong to the molecule of their own block, whether it stands above or below them.

Key:
[1] = target: human PVRIG expressed on the cell surface (human) (UniProt Q6DKI7); assay: cell-based or functional assay
[2] = target: T1, his-tagged cynomolgus monkey PVRIG recombinant protein (cynomolgus monkey); assay: ELISA, plate coated with cynomolgus monkey PVRIG recombinant protein, HRP anti-human IgG, OD450 (method of Example 4)
T1 construct: expressed in HEK293, purified by Ni-NTA; also called cyno-PVRIG-his; Cynomolgus monkey PVRIG-his
T1 chain: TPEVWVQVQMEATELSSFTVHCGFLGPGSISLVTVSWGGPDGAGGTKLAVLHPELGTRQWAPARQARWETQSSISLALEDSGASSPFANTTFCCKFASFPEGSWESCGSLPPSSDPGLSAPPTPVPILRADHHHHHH
Description: Human, cynomolgus monkey or mouse PVRIG protein (at a concentration of 1 μg/mL) was coated on a 96-well microplate at 100 μL per well, and incubated overnight at 4° C. The plate was washed three times with a washing solution at 250 μL per well. For each wash, the plate was shaken for 10 s to ensure adequate cleaning. A blocking solution (PBS+0.05% Tween20+1% BSA) was added at 300 μL per well and the plate was incubated at room temperature for 1 h. The plate was washed three times with a washing solution at 250 μL per well. For each wash, the plate was shaken for 10 s to ensure adequate cleaning. The test anti-PVRIG antibody diluted in diluent was added at 100 μL per well. The mixture was incubated at 37° C. for 1 h. The plate was washed three times with a washing solution at 250 μL per well. HRP-labeled anti-human IgG secondary antibody (Sigma, A8667) was added at 100 μL per well. The mixture was incubated at 37° C. for 1 h. The plate was washed three times with a washing solution at 250 μL per well. […] The OD values at 450 nm were read by using a Thermo MultiSkanFc microplate reader, and the EC₅₀ values of the binding of the anti-PVRIG antibodies to PVRIG were calculated.
(§1) Binding of the humanized anti-PVRIG/TIGIT bispecific antibodies to human and cynomolgus monkey PVRIG and their blocking of the ligand of human PVRIG were detected according to the methods of Examples 4, 5 and 6.

[3] = target: T2, cynomolgus monkey PVRIG expressed on the cell surface (cynomolgus monkey, UniProt A0A2K5WVV8 1-322); assay: flow cytometry on cells overexpressing cynomolgus monkey PVRIG, labelled anti-human IgG (method of Example 5)
T2 construct: whole, on cells; also called cells overexpressing cynomolgus monkey PVRIG; Monkey PVRIG FACS
T2 sequence: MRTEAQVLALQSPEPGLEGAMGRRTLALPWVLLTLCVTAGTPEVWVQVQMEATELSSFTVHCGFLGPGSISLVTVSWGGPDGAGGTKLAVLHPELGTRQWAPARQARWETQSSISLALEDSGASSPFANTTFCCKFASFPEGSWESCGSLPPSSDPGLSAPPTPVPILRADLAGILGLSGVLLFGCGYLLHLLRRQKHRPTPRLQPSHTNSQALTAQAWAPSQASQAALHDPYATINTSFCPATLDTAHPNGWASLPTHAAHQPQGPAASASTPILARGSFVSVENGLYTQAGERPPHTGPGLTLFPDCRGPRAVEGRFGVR
Description: The expression plasmid carries human or cynomolgus monkey PVRIG gene sequence was transfected into HEK293 cells, and the over-expressing stable transfection monoclonal cell strain was obtained by antibiotic screening and infinite dilution. Overexpressing cells were seeded into a 96-well plate at 2×10⁵ cells/per well. The cells were centrifuged at 300 g for 5 min, the supernatant was then removed, 100 μL of the test antibody was added, and the mixture was incubated at 4° C. for 1 h. The mixture was centrifuged, the supernatant was removed, the plate was washed 3 times with 200 μL of a washing solution (PBS+2% FBS), and then 100 μL of an anti-human IgG secondary antibody (Invitrogen, A-11013) labeled with Alexa Fluor 488 diluted at 1:500 was added. The mixture was incubated at 4° C. for 1 h. The mixture was centrifuged, the supernatant was removed, and the plate was washed 3 times with 200 μL of a washing solution (PBS+2% FBS). Cells were resuspended in 100 μL of PBS and detected by a flow cytometer (BD FACS Calibur or BD FACS Canto_II).
as §1

[4] = target: T3, human PVRIG expressed on the cell surface (human, UniProt Q6DKI7 41-326); assay: cell-based or functional assay
T3 sequence (looked up): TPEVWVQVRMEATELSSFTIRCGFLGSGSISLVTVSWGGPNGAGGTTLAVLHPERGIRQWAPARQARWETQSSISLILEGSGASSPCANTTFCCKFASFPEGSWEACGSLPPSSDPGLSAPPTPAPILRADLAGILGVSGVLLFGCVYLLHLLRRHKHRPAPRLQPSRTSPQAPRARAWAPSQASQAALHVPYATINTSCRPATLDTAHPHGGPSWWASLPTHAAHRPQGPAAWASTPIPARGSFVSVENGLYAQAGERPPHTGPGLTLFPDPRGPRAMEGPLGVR

[5] = target: T3, human PVRIG expressed on the cell …; assay: cell-based or functional assay; remark: listed apart in the source
[6] = target: T3, human PVRIG expressed on the cell …; assay: cell-based or functional assay; remark: listed apart in the source
[7] = target: T3, human PVRIG expressed on the cell …; assay: cell-based or functional assay; remark: listed apart in the source
[8] = target: T3, human PVRIG expressed on the cell …; assay: cell-based or functional assay; remark: listed apart in the source

- IFNγ (pg/mL) in mixed lymphocyte reaction, 20 nM antibody (control) [1]: 74 pg/mL
- IFNγ (pg/mL) in mixed lymphocyte reaction, 100 nM antibody (control) [1]: 89 pg/mL
Molecule: IgG4 control antibody
- Killing activity (%) of NK92 on K562, 4 nM antibody (control) [1]: 11.2%
- Killing activity (%) of NK92 on K562, 20 nM antibody (control) [1]: 11.7%
- Killing activity (%) of NK92 on K562, 100 nM antibody (control) [1]: 9.2%

- binding result [2]: no binding (tested: about 20 nM)
- binding result [3]: no binding (tested: about 200 nM)
B1: anti-TIGIT antibody 1708 (antibody, human IgG4 S228P, kappa, V domains shown)
VH: EVQLVQSGAEVKKPGASVKVSCKASGYTFTNYWMHWVRQAPGQGLEWMGRIDPDSTGSKYNEKFKTRVTMTRDTSTSTVYMELSSLRSEDTAVYYCAREGAYGYYFDYWGQGTLVTVSS
VL: DIQMTQSPSSLSASVGDRVTITCRASENIYSYLAWYQQKPGKSPKLLIYNARTLAEGVPSRFSGSGSGTDFTLTISSLQPEDFATYYCQYHSGSPLPFGGGTKVEIKR
notes: human IgG4 subtype with S228P; kappa light chain

- IFNγ (pg/mL) in mixed lymphocyte reaction, 4 nM antibody [4]: 912 pg/mL
- IFNγ (pg/mL) in mixed lymphocyte reaction, 20 nM antibody [4]: 1420 pg/mL
- IFNγ (pg/mL) in mixed lymphocyte reaction, 100 nM antibody [4]: 2350 pg/mL
- Experiment on activity in PVRIG reporter cells EC50 [5]: 1.38 nM
- Experiment on activity in PVRIG reporter cells EC50 [8]: 0.74 nM
B2: positive antibody Tab5 (antibody, human IgG4 S228P, kappa, F234A L235A, V domains shown)
VH: EVQLVESGGGVVKPGGSLRLSCAASGFTFGTSSMNWVRQAPGKGLEWVAVISFDGTEIHYADSVKGRFTISRDNSKSTVFLQMNSLRPDDTALYYCAKGSGNIYFYSGMDVWGQGTTVTVSS
VL: DIQMTQSPSTLSASVGDRVTITCRAGQSISGWLAWFQQKPGKAPNLLIYETSTLESGVPSRFSGSGSGTEYTLTISSLQPDDFATYYCQQYYSYPLTFGQGTKVEIKR
- Killing activity (%) of NK92 on K562, 4 nM antibody [6]: 5.9%
- Killing activity (%) of NK92 on K562, 20 nM antibody [6]: 7.9%
- Killing activity (%) of NK92 on K562, 100 nM antibody [6]: 10%
- Killing activity (%) of NK92 on K562, 20 nM antibody [7]: 32%
- Killing activity (%) of NK92 on K562, 100 nM antibody [7]: 32%
